Key:
Assay in all cases: cells, lysate or membranes named
[1] = substrate: O=C(CO)COP(=O)(O)O; format: biochemical, R. eutropha; details: other: substrate dihydroxyacetone phosphate 0.15-1.5 mM, crude extract, imidazole-HCl pH 7.0, 30° C.
Excerpt: (§1) 1,2-Propanediol pathway branches from glycolysis and competes for the intermediate dihydroxyacetone phosphate, with the glycolytic pathway. […] We amplified the mgsA genes from the microorganisms: C. acetobutylicum (ATCC#824), B. subtilis 168, C. difficile R20291, E. coli MG1655, T. thermophilus HB27, K. pneumoniae MGH78578, P. fluorescens Pf-5, and R. eutropha H16 respectively. These genes were cloned and expressed in wild type E. coli BW25113 using eight plasmids pRJ1-pRJ8. Each gene was under the control of the IPTG-inducible pLlacO1 promoter. Using dihydroxyacetone-phosphate as the substrate, we successfully detected the functional expression of all mgsA genes in vitro, where the specific activities varied from 0.0052 U/mg to 0.1242 U/mg (Table 1). […] Without the over-expression of mgsA gene, we also detected the native expression of E. coli mgsA, which gave a specific activity of only 0.0008 U/mg, much lower than that of any over-expression.
(§2) Using the primers listed in Table 5, the mgsA genes were PCR amplified from the genomic DNA of C. acetobutylicum (ATCC824), B. subtilis 168, Clostridium difficile R20291, E. coli MG1655, Thermus thermophilus HB27, K. pneumoniae MGH78578, Pseudomonas fluorescens Pf-5, and Ralstonia eutropha H16 respectively. […]
(§3) The assay was carried out using a two-step procedure. […] The samples were diluted 10 times before measuring the absorbance at 550 nm.

[2] = substrate: O=C(CO)COP(=O)(O)O; format: biochemical, C. acetobutylicum; details: other: substrate dihydroxyacetone phosphate 0.15-1.5 mM, crude extract, imidazole-HCl pH 7.0, 30° C.
Excerpt: as §1, §2, §3

[3] = substrate: O=C(CO)COP(=O)(O)O; format: biochemical, P. fluorescens; details: other: substrate dihydroxyacetone phosphate 0.15-1.5 mM, crude extract, imidazole-HCl pH 7.0, 30° C.
Excerpt: as §1, §2, §3

[4] = substrate: CC(=O)C=O; format: biochemical, E. coli; details: other: substrate methylglyoxal 20-120 mM, 0.25 mM NADH, crude extract, imidazole-HCl pH 7.0, 37° C.
Method: When the gene is over-expressed by pRJ10, the specific activity was determined to be 1.62±0.012 U/mg.

[5] = substrate: O=C(CO)COP(=O)(O)O; format: biochemical, T. thermophilus; details: other: substrate dihydroxyacetone phosphate 0.15-1.5 mM, crude extract, imidazole-HCl pH 7.0, 30° C.
Excerpt: as §1, §2, §3

[6] = substrate: O=C(CO)COP(=O)(O)O; format: biochemical, B. subtilis; details: other: substrate dihydroxyacetone phosphate 0.15-1.5 mM, crude extract, imidazole-HCl pH 7.0, 30° C.
Excerpt: as §1, §2, §3

B1: Ralstonia eutropha H16 methylglyoxal synthase (mgsA), wild type (Cupriavidus necator H16) (protein)
chain: MTRPRIALIAHDHKKDDIVAFATRHRAFLSQCELLATGTTGGRLIDEVGLEVTRMLSGPWGGDLQIGAQLAVGLVRAVVFLRDPMTPQPHEPDINALVRACDVHNVPCATNVATAELLIAGLAREVDEAAAS
B1 was tested, and the Km [1] was 700 ± 30 µM.

B2: Clostridium acetobutylicum (ATCC 824) methylglyoxal synthase (mgsA), wild type (Clostridium acetobutylicum ATCC 824) (protein)
chain: MNSKKKIALVAHDNRKKALISWCEANSEVLSNHSLCGTGTTAKLIKEATGLEVFPYKSGPMGGDQQIGAAIVNEDIDFMIFFWDPLTAQPHDPDVKALLRISVLYDIPIAMNESTAEFLIKSPIMKEQHERHIIDYYQKIRKDNF
Work on B2 yielded a Km [2] of 776 ± 5 µM.

B3: Pseudomonas fluorescens Pf-5 methylglyoxal synthase (mgsA), wild type (Pseudomonas protegens Pf-5) (protein)
chain: MIGISFTHKTMAARKRIALVAHDHCKAFLLEWAGRQKARLAEHELVATGTTGLLLSKHLGLPVESMISGPLGGDQQLGAQIAEQRVDLLVFFWDPFEPQPHDPDIKALLRVAAVWNIPVACNECSADYLLSSPLMNQAHEHRIPDYQAYLAGRG
In the case of B3, the Km [3] is reported as 1560 ± 20 µM.

B4: E. coli MG1655 methylglyoxal reductase (ydjG), wild type (Escherichia coli K-12) (protein)
chain: MKKIPLGTTDITLSRMGLGTWAIGGGPAWNGDLDRQICIDTILEAHRCGINLIDTAPGYNFGNSEVIVGQALKKLPREQVVVETKCGIVWERKGSLFNKVGDRQLYKNLSPESIREEVAASLQRLGIDYIDIYMTHWQSVPPFFTPIAETVAVLNELKSEGKIRAIGAANVDADHIREYLQYGELDIIQAKYSILDRAMENELLPLCRDNGIVVQVYSPLEQGLLTGTITRDYVPGGARANKVWFQRENMLKVIDMLEQWQPLCARYQCTIPTLALAWILKQSDLISILSGATAPEQVRENVAALNINLSDADATLMREMAEALER
Protein B4 has a Km [4] of 3310 ± 20 µM.

B5: Thermus thermophilus HB27 methylglyoxal synthase (mgsA), wild type (Thermus thermophilus HB27) (protein)
chain: MKALALIAHDAKKDEMVAFCLRHKDVLARYPLLATGTTGARIQEATGLAVERVLSGPLGGDLQIGARVAEGKVLAVVFLQDPLTAKPHEPDVQALMRVCNVHGVPLATNLVAAEALIAWIRKGTPQ
With B5 the Km [5] was 2118 ± 70 µM.

B6: Bacillus subtilis 168 methylglyoxal synthase (mgsA), wild type (Bacillus subtilis subsp. subtilis str. 168) (protein)
chain: MKIALIAHDKKKQDMVQFTTAYRDILKNHDLYATGTTGLKIHEATGLQIERFQSGPLGGDQQIGALIAANALDLVIFLRDPLTAQPHEPDVSALIRLCDVYSIPLATNMGTAEILVRTLDEGVFEFRDLLRGEEPNV
B6 gave a Km [6] of 473 ± 70 µM.
